From IntAct's records for PubMed 30845169

B1: Centrosomal protein POC5 (Homo sapiens), Q8NA72 (parent)
chain: MSSDEEKYSLPVVQNDSSRGSSVSSNLQEEYEELLHYAIVTPNIEPCASQSSHPKGELVPDVRISTIHDILHSQGNNSEVRETAIEVGKGCDFHISSHSKTDESSPVLSPRKPSHPVMDFFSSHLLADSSSPATNSSHTDAHEILVSDFLVSDENLQKMENVLDLWSSGLKTNIISELSKWRLNFIDWHRMEMRKEKEKHAAHLKQLCNQINELKELQKTFEISIGRKDEVISSLSHAIGKQKEKIELMRTFFHWRIGHVRARQDVYEGKLADQYYQRTLLKKVWKVWRSVVQKQWKDVVERACQARAEEVCIQISNDYEAKVAMLSGALENAKAEIQRMQHEKEHFEDSMKKAFMRGVCALNLEAMTIFQNRNDAGIDSTNNKKEEYGPGVQGKEHSAHLDPSAPPMPLPVTSPLLPSPPAAVGGASATAVPSAASMTSTRAASASSVHVPVSALGAGSAATAASEEMYVPRVVTSAQQKAGRTITARITGRCDFASKNRISSSLAIMGVSPPMSSVVVEKHHPVTVQTIPQATAAKYPRTIHPESSTSASRSLGTRSAHTQSLTSVHSIKVVD

Variants of: B1
Settings: with tba4a_human TUBA4A

Question: Which “effect of a mutation on the interaction” value does the source give for MSSDEEKYSLPVVQNDSSRGSSVSSNLQEEYEELLHYAIVTPNIEPCASQSSHPKGELVPDVRISTIHDILHSQGNNSEVRETAIEVGKGCDFHISSHSKTDESSPVLSPRKPSHPVMDFFSSHLLADSSSPATNSSHTDAHEILVSDFLVSDENLQKMENVLDLWSSGLKTNIISELSKWRLNFIDWHRMEMRKEKEKHAAHLKQLCNQINELKELQKTFEISIGRKDEVISSLSHAIGKQKEKIELMRTFFHWRIGHVRARQDVYEGKLADQYYQRTLLKKVWKVWRSVVQKQWKDVVERACQARAEEVCIQISNDYEAKVAMLSGALENAKAEIQRMQHEKEHFEDSMKKAFMRGVCALNLEAMTIFQNRNDAGIDSTNNKKEEYGPGVQGKEHSAHLDPSAPPMPLPVTSPLLPSPPAAVGGASVTAVPSAASMTSTRAASASSVHVPVSALGAGSAATAASEEMYVPRVVTSAQQKAGRTITARITGRCDFASKNRISSSLAIMGVSPPMSSVVVEKHHPVTVQTIPQATAAKYPRTIHPESSTSASRSLGTRSAHTQSLTSVHSIKVVD [A429V] here?
Answer: decreasing interaction strength

Variants of: B1
Settings: with tba4a_human TUBA4A
Remark: another data set of the same source

Question: Which “effect of a mutation on the interaction” value does the source give for MSSDEEKYSLPVVQNDSSRGSSVSSNLQEEYEELLHYAIVTPNIEPCASQSSHPKGELVPDVRISTIHDILHSQGNNSEVRETAIEVGKGCDFHISSHSKTDESSPVLSPRKPSHPVMDFFSSHLLADSSSPATNSSHTDAHEILVSDFLVSDENLQKMENVLDLWSSGLKTNIISELSKWRLNFIDWHRMEMRKEKEKHAAHLKQLCNQINELKELQKTFEISIGRKDEVISSLSHAIGKQKEKIELMRTFFHWRIGHVRARQDVYEGKLADQYYQRTLLKKVWKVWRSVVQKQWKDVVERACQARAEEVCIQISNDYEAKVAMLSGALENAKAEIQRMQHEKEHFEDSMKKAFMRGVCALNLEAMTIFQNRNDAGIDSTNNKKEEYGPGVQGKEHSAHLDPSAPPMPLPVTSPLLPSPPAAVGGASVTAVPSAASMTSTRAASASSVHVPVSALGAGSAATAASEEMYVPRVVTSAQQKAGRTITARITGRCDFASKNRISSSLAIMGVSPPMSSVVVEKHHPVTVQTIPQATAAKYPRTIHPESSTSASRSLGTRSAHTQSLTSVHSIKVVD [A429V] here?
Answer: disrupting interaction strength
